Measured values published in patent US10358663B2, “Method of production of 2,4-dihydroxybutyric acid” (ADISSEO FRANCE S.A.S., priority 2010, dated 2019).

Legend:
Type in all cases: biochemical, Escherichia coli
[1] = substrate: O=CC[C@H](O)C(=O)O; test: Malate semialdehyde dehydrogenase assay, Asd E241G; details: other: malate semialdehyde, reverse biosynthetic direction, pH 9, 0.25 mM NADP, 30° C.
Method: Enzymatic assay: Aspartate or malate semialdehyde dehydrogenase activities were assayed in the reverse biosynthetic direction by following the reduction of NADP during the oxidation of aspartate or malate semialdehyde to 4-phospho-(L)-aspartate or 4-phospho-(L)-malate, respectively (Roberts et al., 2003). (L)-aspartate semialdehyde (or (L)-malate semialdehyde)+NADP+Pi→4-phospho-(L)-aspartate (or 4-phospho-(L)-malate)+NADPH
The assay mixture contained 200 mM Hepes (pH 9), 50 mM K2HPO4, 0.25 mM NADP. Reactions were started by adding (L)-aspartate semialdehyde or (L)-malate semialdehyde. (L)-Aspartate semialdehyde was added in the form of L-aspartic acid β-semialdehyde hydrate trifluoroacetate (maintained at pH3 to prevent degradation) which is a suitable substrate for enzymatic tests of homoserine dehydrogenase and aspartate semialdehyde dehysrogenase (Roberts et al., 2003). Unstable malate semialdehyde was produced freshly prior to the enzymatic tests by the deprotection of the stable malate semialdehyde derivative 2-[(4S)-2,2-dimethyl-5-oxo-1,3-dioxolan-4-yl]acetaldehyde (DMODA). […]
Enzymatic assays were carried out in 96-well flat bottomed microtiter plates in a final volume of 250 μL at 30° C. The reactions were followed by the characteristic absorption of NADPH at 340 nm in a microplate reader (BioRad 680XR).

[2] = substrate: O=C(O)C[C@H](O)C(=O)O; test: Malate kinase assay, LysC E119P; details: other: malate, pH 7.5, 30° C., average of at least two independent experiments
Method: (§1) Enzymatic assay: Aspartate or malate kinase activities were assayed by coupling ADP production in the kinase reactions to NADH oxidation in the presence of phosphoenolpyruvate, pyruvate kinase, and lactate dehydrogenase.
(§2) Aspartate (or Malate) Kinase aspartate (or malate)+ATP→4-phospho-(L)-aspartate (or 4-phospho-(L)-malate)+ADP
(§3) The assay mixture contained 50 mM Hepes (pH 7.5), 50 mM KCl, 5 mM MgCl2, 0.24 mM NADH, 0.96 mM ATP, 0.96 mM PEP, 9 μg/mL of lactate dehydrogenase (Sigma, L2500), 12.4 μg/mL pyruvate kinase (Sigma, P1506), and appropriate amounts of purified aspartate (malate) kinase. Reactions were started by adding 50 mM (L)-aspartate or (L)-malate. Enzymatic assays were carried out at 30° C. in 96-well flat bottomed microtiter plates in a final volume of 250 μL. The reactions were followed by the characteristic absorption of NADH at 340 nm in a microplate reader (BioRad 680XR).
(§4) Mutant enzymes were expressed, purified and tested for aspartate and malate kinase activity as described in Example 1.

[3] = substrate: O=C(O)C[C@H](O)C(=O)O; test: Malate kinase assay, LysC E119T; details: other: malate, pH 7.5, 30° C., average of at least two independent experiments
Method: as §1, §2, §3, §4

[4] = substrate: O=C(O)C[C@H](O)C(=O)O; test: Malate kinase assay, LysC E119V; details: other: malate, pH 7.5, 30° C., average of at least two independent experiments
Method: as §1, §2, §3, §4

[5] = substrate: O=C(O)C[C@H](O)C(=O)O; test: Malate kinase assay, LysC E119G; details: other: malate, pH 7.5, 30° C., average of at least two independent experiments
Method: as §1, §2, §3, §4

[6] = substrate: O=C(O)C[C@H](O)C(=O)O; test: Malate kinase assay, LysC E119C; details: other: malate, pH 7.5, 30° C., average of at least two independent experiments
Method: as §1, §2, §3, §4

[7] = substrate: O=C(O)C[C@H](O)C(=O)O; test: Malate kinase assay, LysC E119N; details: other: malate, pH 7.5, 30° C., average of at least two independent experiments
Method: as §1, §2, §3, §4

[8] = substrate: O=C(O)C[C@H](O)C(=O)O; test: Malate kinase assay, LysC E119Q; details: other: malate, pH 7.5, 30° C., average of at least two independent experiments
Method: as §1, §2, §3, §4

[9] = substrate: O=C(O)C[C@H](O)C(=O)O; test: Malate kinase assay, LysC E119S; details: other: malate, pH 7.5, 30° C., average of at least two independent experiments
Method: as §1, §2, §3, §4

B1: E. coli aspartate semialdehyde dehydrogenase Asd variant E241G, SEQ ID NO: 58 (Escherichia coli K-12; E241G) (protein)
chain: MKNVGFIGWRGMVGSVLMQRMVEERDFDAIRPVFFSTSQLGQAAPSFGGTTGTLQDAFDLEALKALDIIVTCQGGDYTNEIYPKLRESGWQGYWIDAASSLRMKDDAIIILDPVNQDVITDGLNNGIRTFVGGNCTVSLMLMSLGGLFANDLVDWVSVATYQAASGGGARHMRELLTQMGHLYGHVADELATPSSAILDIERKVTTLTRSGELPVDNFGVPLAGSLIPWIDKQLDNGQSRGEWKGQAETNKILNTSSVIPVDGLCVRVGALRCHSQAFTIKLKKDVSIPTVEELLAAHNPWAKVVPNDREITMRELTPAAVTGTLTTPVGRLRKLNMGPEFLSAFTVGDQLLWGAAEPLRRMLRQLA
Which results are given for B1?
Km [1]: 0.18 mM; Vmax [1]: 0.09 µmol/mg/min

B2: E. coli aspartate kinase LysC variant E119P, SEQ ID NO: 18 (Escherichia coli K-12; E119P) (protein)
chain: MSEIVVSKFGGTSVADFDAMNRSADIVLSDANVRLVVLSASAGITNLLVALAEGLEPGERFEKLDAIRNIQFAILERLRYPNVIREEIERLLENITVLAEAAALATSPALTDELVSHGPLMSTLLFVEILRERDVQAQWFDVRKVMRTNDRFGRAEPDIAALAELAALQLLPRLNEGLVITQGFIGSENKGRTTTLGRGGSDYTAALLAEALHASRVDIWTDVPGIYTTDPRVVSAAKRIDEIAFAEAAEMATFGAKVLHPATLLPAVRSDIPVFVGSSKDPRAGGTLVCNKTENPPLFRALALRRNQTLLTLHSLNMLHSRGFLAEVFGILARHNISVDLITTSEVSVALTLDTTGSTSTGDTLLTQSLLMELSALCRVEVEEGLALVALIGNDLSKACGVGKEVFGVLEPFNIRMICYGASSHNLCFLVPGEDAEQVVQKLHSNLFE
B2 was tested. Which Km [2] did it give?
The Km was 19.0 mM.

What about the Vmax [2] of the same protein?
Its Vmax is 0.71 µmol/mg/min.

B3: E. coli aspartate kinase LysC variant E119T, SEQ ID NO: 24 (Escherichia coli K-12; E119T) (protein)
chain: MSEIVVSKFGGTSVADFDAMNRSADIVLSDANVRLVVLSASAGITNLLVALAEGLEPGERFEKLDAIRNIQFAILERLRYPNVIREEIERLLENITVLAEAAALATSPALTDELVSHGTLMSTLLFVEILRERDVQAQWFDVRKVMRTNDRFGRAEPDIAALAELAALQLLPRLNEGLVITQGFIGSENKGRTTTLGRGGSDYTAALLAEALHASRVDIWTDVPGIYTTDPRVVSAAKRIDEIAFAEAAEMATFGAKVLHPATLLPAVRSDIPVFVGSSKDPRAGGTLVCNKTENPPLFRALALRRNQTLLTLHSLNMLHSRGFLAEVFGILARHNISVDLITTSEVSVALTLDTTGSTSTGDTLLTQSLLMELSALCRVEVEEGLALVALIGNDLSKACGVGKEVFGVLEPFNIRMICYGASSHNLCFLVPGEDAEQVVQKLHSNLFE
For B3, which Km [3] is on record?
The Km was 26.8 mM.

And the Vmax [3]?
Its Vmax is 0.33 µmol/mg/min.

B4: E. coli aspartate kinase LysC variant E119V, SEQ ID NO: 26 (Escherichia coli K-12; E119V) (protein)
chain: MSEIVVSKFGGTSVADFDAMNRSADIVLSDANVRLVVLSASAGITNLLVALAEGLEPGERFEKLDAIRNIQFAILERLRYPNVIREEIERLLENITVLAEAAALATSPALTDELVSHGVLMSTLLFVEILRERDVQAQWFDVRKVMRTNDRFGRAEPDIAALAELAALQLLPRLNEGLVITQGFIGSENKGRTTTLGRGGSDYTAALLAEALHASRVDIWTDVPGIYTTDPRVVSAAKRIDEIAFAEAAEMATFGAKVLHPATLLPAVRSDIPVFVGSSKDPRAGGTLVCNKTENPPLFRALALRRNQTLLTLHSLNMLHSRGFLAEVFGILARHNISVDLITTSEVSVALTLDTTGSTSTGDTLLTQSLLMELSALCRVEVEEGLALVALIGNDLSKACGVGKEVFGVLEPFNIRMICYGASSHNLCFLVPGEDAEQVVQKLHSNLFE
Which Km [4] does the source give for B4 here?
Its Km is 39.7 mM.

And the Vmax [4]?
Its Vmax is 0.29 µmol/mg/min.

B5: E. coli aspartate kinase LysC variant E119G, SEQ ID NO: 14 (Escherichia coli K-12; E119G) (protein)
chain: MSEIVVSKFGGTSVADFDAMNRSADIVLSDANVRLVVLSASAGITNLLVALAEGLEPGERFEKLDAIRNIQFAILERLRYPNVIREEIERLLENITVLAEAAALATSPALTDELVSHGGLMSTLLFVEILRERDVQAQWFDVRKVMRTNDRFGRAEPDIAALAELAALQLLPRLNEGLVITQGFIGSENKGRTTTLGRGGSDYTAALLAEALHASRVDIWTDVPGIYTTDPRVVSAAKRIDEIAFAEAAEMATFGAKVLHPATLLPAVRSDIPVFVGSSKDPRAGGTLVCNKTENPPLFRALALRRNQTLLTLHSLNMLHSRGFLAEVFGILARHNISVDLITTSEVSVALTLDTTGSTSTGDTLLTQSLLMELSALCRVEVEEGLALVALIGNDLSKACGVGKEVFGVLEPFNIRMICYGASSHNLCFLVPGEDAEQVVQKLHSNLFE
What does the source list for B5?
Km [5]: 16.0 mM; Vmax [5]: 0.49 µmol/mg/min

B6: E. coli aspartate kinase LysC variant E119C, SEQ ID NO: 12 (Escherichia coli K-12; E119C) (protein)
chain: MSEIVVSKFGGTSVADFDAMNRSADIVLSDANVRLVVLSASAGITNLLVALAEGLEPGERFEKLDAIRNIQFAILERLRYPNVIREEIERLLENITVLAEAAALATSPALTDELVSHGCLMSTLLFVEILRERDVQAQWFDVRKVMRTNDRFGRAEPDIAALAELAALQLLPRLNEGLVITQGFIGSENKGRTTTLGRGGSDYTAALLAEALHASRVDIWTDVPGIYTTDPRVVSAAKRIDEIAFAEAAEMATFGAKVLHPATLLPAVRSDIPVFVGSSKDPRAGGTLVCNKTENPPLFRALALRRNQTLLTLHSLNMLHSRGFLAEVFGILARHNISVDLITTSEVSVALTLDTTGSTSTGDTLLTQSLLMELSALCRVEVEEGLALVALIGNDLSKACGVGKEVFGVLEPFNIRMICYGASSHNLCFLVPGEDAEQVVQKLHSNLFE
What does the source list for B6?
Km [6]: 19.7 mM; Vmax [6]: 0.97 µmol/mg/min

B7: E. coli aspartate kinase LysC variant E119N, SEQ ID NO: 16 (Escherichia coli K-12; E119N) (protein)
chain: MSEIVVSKFGGTSVADFDAMNRSADIVLSDANVRLVVLSASAGITNLLVALAEGLEPGERFEKLDAIRNIQFAILERLRYPNVIREEIERLLENITVLAEAAALATSPALTDELVSHGNLMSTLLFVEILRERDVQAQWFDVRKVMRTNDRFGRAEPDIAALAELAALQLLPRLNEGLVITQGFIGSENKGRTTTLGRGGSDYTAALLAEALHASRVDIWTDVPGIYTTDPRVVSAAKRIDEIAFAEAAEMATFGAKVLHPATLLPAVRSDIPVFVGSSKDPRAGGTLVCNKTENPPLFRALALRRNQTLLTLHSLNMLHSRGFLAEVFGILARHNISVDLITTSEVSVALTLDTTGSTSTGDTLLTQSLLMELSALCRVEVEEGLALVALIGNDLSKACGVGKEVFGVLEPFNIRMICYGASSHNLCFLVPGEDAEQVVQKLHSNLFE
What does the source list for B7?
Km [7]: 27.1 mM; Vmax [7]: 0.13 µmol/mg/min

B8: E. coli aspartate kinase LysC variant E119Q, SEQ ID NO: 20 (Escherichia coli K-12; E119Q) (protein)
chain: MSEIVVSKFGGTSVADFDAMNRSADIVLSDANVRLVVLSASAGITNLLVALAEGLEPGERFEKLDAIRNIQFAILERLRYPNVIREEIERLLENITVLAEAAALATSPALTDELVSHGQLMSTLLFVEILRERDVQAQWFDVRKVMRTNDRFGRAEPDIAALAELAALQLLPRLNEGLVITQGFIGSENKGRTTTLGRGGSDYTAALLAEALHASRVDIWTDVPGIYTTDPRVVSAAKRIDEIAFAEAAEMATFGAKVLHPATLLPAVRSDIPVFVGSSKDPRAGGTLVCNKTENPPLFRALALRRNQTLLTLHSLNMLHSRGFLAEVFGILARHNISVDLITTSEVSVALTLDTTGSTSTGDTLLTQSLLMELSALCRVEVEEGLALVALIGNDLSKACGVGKEVFGVLEPFNIRMICYGASSHNLCFLVPGEDAEQVVQKLHSNLFE
Which Km [8] does the source give for B8 here?
The Km was 39.9 mM.

What about the Vmax [8] of the same protein?
Its Vmax is 0.01 µmol/mg/min.

B9: E. coli aspartate kinase LysC variant E119S, SEQ ID NO: 22 (Escherichia coli K-12; E119S) (protein)
chain: MSEIVVSKFGGTSVADFDAMNRSADIVLSDANVRLVVLSASAGITNLLVALAEGLEPGERFEKLDAIRNIQFAILERLRYPNVIREEIERLLENITVLAEAAALATSPALTDELVSHGSLMSTLLFVEILRERDVQAQWFDVRKVMRTNDRFGRAEPDIAALAELAALQLLPRLNEGLVITQGFIGSENKGRTTTLGRGGSDYTAALLAEALHASRVDIWTDVPGIYTTDPRVVSAAKRIDEIAFAEAAEMATFGAKVLHPATLLPAVRSDIPVFVGSSKDPRAGGTLVCNKTENPPLFRALALRRNQTLLTLHSLNMLHSRGFLAEVFGILARHNISVDLITTSEVSVALTLDTTGSTSTGDTLLTQSLLMELSALCRVEVEEGLALVALIGNDLSKACGVGKEVFGVLEPFNIRMICYGASSHNLCFLVPGEDAEQVVQKLHSNLFE
How did the Km [9] turn out when B9 was run?
Its Km is 15.7 mM.

And the Vmax [9]?
The Vmax was 0.83 µmol/mg/min.
